Experimental data reported in US20180155451A1 (published 2018).
Like-named read-outs stand apart in the source and are kept apart here.

T1: FcgRIIa R extracellular domain with C-terminal His tag (human, UniProt P12318 34-217)
T1 construct: extracellular domain; also called FcγRIIa R; FcγRIIa type R; not shown: His tag attached to the C terminus
T1 sequence (looked up): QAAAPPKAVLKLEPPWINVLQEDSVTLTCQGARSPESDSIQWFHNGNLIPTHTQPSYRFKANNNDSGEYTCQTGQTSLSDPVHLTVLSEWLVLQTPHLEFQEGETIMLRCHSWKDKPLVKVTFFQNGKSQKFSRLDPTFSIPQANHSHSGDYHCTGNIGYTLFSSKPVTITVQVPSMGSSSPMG

T2: FcgRIIb extracellular domain with C-terminal His tag (human, UniProt P31994 43-217)
T2 construct: extracellular domain; also called FcγRIIb; not shown: His tag attached to the C terminus
T2 sequence (looked up): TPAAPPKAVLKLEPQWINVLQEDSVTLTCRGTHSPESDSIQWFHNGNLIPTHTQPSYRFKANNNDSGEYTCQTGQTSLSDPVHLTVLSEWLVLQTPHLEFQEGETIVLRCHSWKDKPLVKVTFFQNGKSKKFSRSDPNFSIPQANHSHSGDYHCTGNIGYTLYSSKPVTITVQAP

T3: FcgRIIa H extracellular domain with C-terminal His tag (human, UniProt P12318 34-217)
T3 construct: extracellular domain; also called FcγRIIa H; FcγRIIa type H; not shown: His tag attached to the C terminus
T3 sequence (looked up): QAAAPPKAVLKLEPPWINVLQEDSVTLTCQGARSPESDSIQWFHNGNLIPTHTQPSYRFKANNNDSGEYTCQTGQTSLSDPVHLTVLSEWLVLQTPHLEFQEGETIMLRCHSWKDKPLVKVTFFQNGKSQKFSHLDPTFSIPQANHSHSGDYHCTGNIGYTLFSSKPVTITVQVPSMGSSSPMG


Columns and labels:
[1] = target: T4, FcgRIa extracellular domain with C-terminal His tag (human, UniProt P12314 16-292); assay: SPR (Biacore), antibody captured on chip, FcγR extracellular domain as analyte, kinetic analysis
T4 construct: extracellular domain; Expressed in FreeStyle293 cells; used as analyte in Biacore; also called FcγRIa; FcγRI; not shown: His tag attached to the C terminus
T4 sequence (P12314 16-292): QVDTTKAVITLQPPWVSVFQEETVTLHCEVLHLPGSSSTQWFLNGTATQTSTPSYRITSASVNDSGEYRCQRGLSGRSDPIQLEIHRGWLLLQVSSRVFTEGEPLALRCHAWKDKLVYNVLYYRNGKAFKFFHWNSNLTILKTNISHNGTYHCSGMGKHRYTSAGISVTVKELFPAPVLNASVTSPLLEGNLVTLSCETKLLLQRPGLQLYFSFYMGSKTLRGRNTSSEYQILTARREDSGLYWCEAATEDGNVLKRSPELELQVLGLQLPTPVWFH
Protocol: (§1) Analysis of interaction between obj ective antibody and the FcγR was carried out using Biacore T100 (GE Healthcare), Biacore T200, Biacore A100, and Biacore 4000. HBS-EP+ (GE Healthcare) was used as the running buffer, and the measurement temperature was set to 25° C. Chips produced by immobilizing the antigen peptide by the amine coupling method to a Series S sensor Chip CM5 (GE Healthcare), chips produced by allowing preliminarily biotinylated antigen peptides to interact with and immobilize onto a Series S Sensor Chip SA (certified) (GE Healthcare), chips produced by immobilizing Protein L (ACTIGEN, BioVision) to Series S Sencor Chip CM5 (GE Healthcare), or chips produced by immobilizing Protein A/G (Thermo Scientific) to Series S Sencor Chip CM5 (GE Healthcare) were used. Antibodies of interest were captured onto these chips, and allowed to interact to each FcγR diluted with running buffer. To regenerate and repeatedly use the chip, the antibodies captured onto the chip were washed off by reacting 10 mM glycine-HCl, pH 1.5.

[2] = target: T1, FcgRIIa R extracellular domain with …; assay: as above
Protocol: as §1

[3] = target: T5, FcgRIIIa F extracellular domain with C-terminal His tag (human, UniProt P08637 17-208); assay: as above
T5 construct: extracellular domain; also called FcγRIIIa F; FcγRIIIa (F158); not shown: His tag attached to the C terminus
T5 sequence (P08637 17-208): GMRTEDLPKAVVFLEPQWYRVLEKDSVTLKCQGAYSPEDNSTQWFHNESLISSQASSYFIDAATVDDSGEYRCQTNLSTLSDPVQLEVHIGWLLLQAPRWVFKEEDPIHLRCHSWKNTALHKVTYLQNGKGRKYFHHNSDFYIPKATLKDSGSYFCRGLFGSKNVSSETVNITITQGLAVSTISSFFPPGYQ
Protocol: as §1

[4] = target: T2, FcgRIIb extracellular domain with …; assay: as above
Protocol: as §1

[5] = target: T6, FcgRIIIa V extracellular domain with C-terminal His tag (human, UniProt P08637 17-208); assay: as above
T6 construct: extracellular domain; also called FcγRIIIa V; FcγRIIIa (V158); not shown: His tag attached to the C terminus
T6 sequence (P08637 17-208 F176V): as the sequence (P08637 17-208) above, with F160V counted along it
Protocol: as §1

[6] = target: T3, FcgRIIa H extracellular domain with …; assay: as above
Protocol: as §1

[7] = target: T5, FcgRIIIa F extracellular domain with …; assay: as above; remark: listed apart in the source
Protocol: as §1

[8] = target: T6, FcgRIIIa V extracellular domain with …; assay: as above; remark: listed apart in the source
Protocol: as §1

FcgRIIIa V = target: T7, FcgRIIIa V (human, UniProt P08637 17-208); assay: SPR (Biacore), antibody captured on chip, FcgR extracellular domain as analyte
T7 construct: extracellular domain; also called FcγRIIIa V; not shown: His tag attached to the C terminus
T7 sequence (P08637 17-208 F176V limits assumed): as the sequence (P08637 17-208) above, with F160V counted along it
Protocol: (§2) Similarly, H240-AK072 and L73-k0, and H240-BH076 and L73-k0 were each combined to express and prepare the homodimerized antibodies H240-AK072/L73-k0 and H240-BH076/L73-k0. The antibodies were compared for the binding to each FcgR according to the method described in Reference Example 8.
as §1

FcgRIIIa F = target: T8, FcgRIIIa F (human, UniProt P08637 17-208); assay: as above
T8 construct: extracellular domain; also called FcγRIIIa F; not shown: His tag attached to the C terminus
T8 sequence (P08637 17-208): as the sequence (P08637 17-208) above
Protocol: as §2, §1

Row | Kd [1] | Kd [2] | Kd [3] | Kd [4] | Kd [5] | Kd [6] | Kd [7] | Kd [8] | Kd (FcgRIIIa V) | Kd (FcgRIIIa F) | Binder
1 | 0.14 nM | 350 nM | 5.1 nM | 1200 nM | 1.8 nM | 280 nM | 5.1 nM | 1.8 nM | – | – | H240-Kn061/H240-Hl071/L73-k0 (antibody, human IgG1, kappa, Kn061: L234Y/L235Y/G236W/H268D/S298A; Hl071: K326D/A330M/K334E; also called H240-Kn061/H240-HI071/L73-k0) heavy 1: QDQLVQSGAEVKKPGASVKVSCKASGFNIKDTYIQWVRQAPGQGLEWMGRIDPLRKQTKYREKFEGRVTITADTSTNTAYMELSSLRSEDTAVYYCVRSGREFDYWGQGTLVTVSSASTKGPSVFPLAPSSKSTSGGTAALGCLVKDYFPEPVTVSWNSGALTSGVHTFPAVLQSSGLYSLSSVVTVPSSSLGTQTYICNVNHKPSNTKVDKKVEPKSCDKTHTCPPCPAPEYYWGPSVFLFPPKPKDTLMISRTPEVTCVVVDVSDEDPEVKFNWYVDGVEVHNAKTKPREEQYNATYRVVSVLTVLHQDWLNGKEYKCKVSNKALPAPIEKTISKAKGQPREPQVCTLPPSRDELTKNQVSLWCLVKGFYPSDIAVEWESNGQPENNYKTTPPVLDSDGSFFLYSKLTVDKSRWQQGNVFSCSVMHEALHNHYTQKSLSLSP heavy 2: QDQLVQSGAEVKKPGASVKVSCKASGFNIKDTYIQWVRQAPGQGLEWMGRIDPLRKQTKYREKFEGRVTITADTSTNTAYMELSSLRSEDTAVYYCVRSGREFDYWGQGTLVTVSSASTKGPSVFPLAPSSKSTSGGTAALGCLVKDYFPEPVTVSWNSGALTSGVHTFPAVLQSSGLYSLSSVVTVPSSSLGTQTYICNVNHKPSNTKVDKKVEPKSCDKTHTCPPCPAPELLGGPSVFLFPPKPKDTLMISRTPEVTCVVVDVSHEDPEVKFNWYVDGVEVHNAKTKPREEQYNSTYRVVSVLTVLHQDWLNGKEYKCKVSNDALPMPIEETISKAKGQPREPQVYTLPPSRCELTKNQVSLSCAVKGFYPSDIAVEWESNGQPENNYKTTPPVLDSDGSFFLVSKLTVDKSRWQQGNVFSCSVMHEALHNHYTQKSLSLSP light: DIQMTQSPSSLSASVGDRVTITCRASQDIHKYIAWYQQKPGQAPRLLIQYTSTLQPGVPSRFSGSGSGTDYTFTISSLQPEDIATYYCLQYEQLRTFGGGTKVEIKRTVAAPSVFIFPPSDEQLKSGTASVVCLLNNFYPREAKVQWKVDNALQSGNSQESVTEQDSKDSTYSLSSTLTLSKADYEKHKVYACEVTHQGLSSPVTKSFNRGEC
2 | – | – | – | – | – | – | – | – | 29 nM | 300 nM | H240-AK072/L73-k0 (antibody, human IgG1, kappa, Homodimerized anti-EREG IgG1: H240-A5E (D356K/H435R) with L234Y/L235Y/G236W/H268D/D270E/S298A in both H chains) heavy: QDQLVQSGAEVKKPGASVKVSCKASGFNIKDTYIQWVRQAPGQGLEWMGRIDPLRKQTKYREKFEGRVTITADTSTNTAYMELSSLRSEDTAVYYCVRSGREFDYWGQGTLVTVSSASTKGPSVFPLAPSSKSTSGGTAALGCLVKDYFPEPVTVSWNSGALTSGVHTFPAVLQSSGLYSLSSVVTVPSSSLGTQTYICNVNHKPSNTKVDKKVEPKSCDKTHTCPPCPAPEYYWGPSVFLFPPKPKDTLMISRTPEVTCVVVDVSDEEPEVKFNWYVDGVEVHNAKTKPREEQYNATYRVVSVLTVLHQDWLNGKEYKCKVSNKALPAPIEKTISKAKGQPREPQVYTLPPSRKEMTKNQVSLTCLVKGFYPSDIAVEWESNGQPENNYKTTPPVLDSDGSFFLYSKLTVDKSRWQQGNVFSCSVMHEALHNRYTQKSLSLSP light: DIQMTQSPSSLSASVGDRVTITCRASQDIHKYIAWYQQKPGQAPRLLIQYTSTLQPGVPSRFSGSGSGTDYTFTISSLQPEDIATYYCLQYEQLRTFGGGTKVEIKRTVAAPSVFIFPPSDEQLKSGTASVVCLLNNFYPREAKVQWKVDNALQSGNSQESVTEQDSKDSTYSLSSTLTLSKADYEKHKVYACEVTHQGLSSPVTKSFNRGEC
3 | – | – | – | – | – | – | – | – | 5.3 nM | 26 nM | H240-BH076/L73-k0 (antibody, human IgG1, kappa, Homodimerized anti-EREG IgG1: H240-B3E (K439E) with D270E/K326D/A330M/K334E in both H chains) heavy: QDQLVQSGAEVKKPGASVKVSCKASGFNIKDTYIQWVRQAPGQGLEWMGRIDPLRKQTKYREKFEGRVTITADTSTNTAYMELSSLRSEDTAVYYCVRSGREFDYWGQGTLVTVSSASTKGPSVFPLAPSSKSTSGGTAALGCLVKDYFPEPVTVSWNSGALTSGVHTFPAVLQSSGLYSLSSVVTVPSSSLGTQTYICNVNHKPSNTKVDKKVEPKSCDKTHTCPPCPAPELLGGPSVFLFPPKPKDTLMISRTPEVTCVVVDVSHEEPEVKFNWYVDGVEVHNAKTKPREEQYNSTYRVVSVLTVLHQDWLNGKEYKCKVSNDALPMPIEETISKAKGQPREPQVYTLPPSREEMTKNQVSLTCLVKGFYPSDIAVEWESNGQPENNYKTTPPVLDSDGSFFLYSKLTVDKSRWQQGNVFSCSVMHEALHNHYTQESLSLSP light: DIQMTQSPSSLSASVGDRVTITCRASQDIHKYIAWYQQKPGQAPRLLIQYTSTLQPGVPSRFSGSGSGTDYTFTISSLQPEDIATYYCLQYEQLRTFGGGTKVEIKRTVAAPSVFIFPPSDEQLKSGTASVVCLLNNFYPREAKVQWKVDNALQSGNSQESVTEQDSKDSTYSLSSTLTLSKADYEKHKVYACEVTHQGLSSPVTKSFNRGEC
